Source: PMC4240730

Legend:
[1] = target: basigin (immunoglobulin domains 1 and 2 of the short isoform, residues 22-205) (UniProt P35613); experiment: SPR
[2] = target: basigin (immunoglobulin domains 1 and 2 of the short isoform, residues 22-205) (UniProt P35613); experiment: AUC
basigin (Homo sapiens) = basigin (Homo sapiens) (UniProt P35613); conditions: cited from earlier work

PfRH5ΔNL (from UniProt Q8IFM5 140-526) (domain or fragment)
Kd [1]: 1300 nM

PfRH5ΔN (residues K140-Q526) (from UniProt Q8IFM5 140-526) (domain or fragment)
stoichiometry N [2]: 1

PfRH5 (from UniProt Q8IFM5)
Kd (basigin (Homo sapiens)): 1100 nM
